In patent US20160311912A1 (RINAT NEUROSCIENCE, published 2016):
Each block holds one binder with its values, some of them ahead of it.

Legend:
[1] = target: T1, glucagon receptor (target of the KD / T½ of Tables 1A, 1B and 2B) (Homo sapiens (Human), UniProt P47871 26-136); assay: not stated; 25° C.
T1 construct: not shown: Human Fc carrier (and any linker) of the ECD-Fc fusion

[2] = target: T1, glucagon receptor (target of the KD / …); assay: not stated; 37° C.
[3] = target: T1, glucagon receptor (target of the KD / …); assay: not stated (column of Table 1B)

T1 sequence (P47871 26-136 limits assumed): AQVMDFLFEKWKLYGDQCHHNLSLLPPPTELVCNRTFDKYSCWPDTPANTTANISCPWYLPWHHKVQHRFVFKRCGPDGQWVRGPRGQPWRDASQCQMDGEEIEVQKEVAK

B1: H3-C10 (antibody, V domains shown)
VH: QVQLVQSGAEVKKPGASVKVSCKASGYTFTDFSVHWVRQAPGQGLEWMGWINTETDETSYADDFKGRVTMTRDTSTSTVYMELSSLRSEDTAVYYCVKSLYWSYGPPDYWGQGTTVTVSS
VL: DIQMTQSPSSLSASVGDRVTITCRASQNIRTAVVWYQQKPGKAPKLLIYLATNRHSGVPSRFSGSGSGTDFTFTISSLQPEDIATYYCLQHWTYPFSFGGGTKLEIK
T½ [1]: 3.68 min

B2: H2-E7-H3-3 (antibody, V domains shown)
VH: QVQLVQSGAEVKKPGASVKVSCKASGYTFTDFSVHWVRQAPGQGLEWMGWYNLETDETSYADDFKGRVTMTRDTSTSTVYMELSSLRSEDTAVYYCVKSLYWSYGPPDYWGQGTTVTVSS
VL: DIQMTQSPSSLSASVGDRVTITCRASQNIRTAVVWYQQKPGKAPKLLIYLATNRHSGVPSRFSGSGSGTDFTFTISSLQPEDIATYYCLQHWTYPFSFGGGTKLEIK
T½ [2]: 14.9 h

B3: H2-C8-H3-4 (antibody, V domains shown)
VH: QVQLVQSGAEVKKPGASVKVSCKASGYTFTDFSVHWVRQAPGQGLEWMGWINTETRGTSYADDFKGRVTMTRDTSTSTVYMELSSLRSEDTAVYYCVKSRWWSYGPPDYWGQGTTVTVSS
VL: DIQMTQSPSSLSASVGDRVTITCRASQNIRTAVVWYQQKPGKAPKLLIYLATNRHSGVPSRFSGSGSGTDFTFTISSLQPEDIATYYCLQHWTYPFSFGGGTKLEIK
T½ [2]: 5.3 h

B7: H2-A11 (antibody, V domains shown)
VH: QVQLVQSGAEVKKPGASVKVSCKASGYTFTDFSVHWVRQAPGQGLEWMGWINTEYDFTSYADDFKGRVTMTRDTSTSTVYMELSSLRSEDTAVYYCVKSRGWSYGPPDYWGQGTTVTVSS
VL: DIQMTQSPSSLSASVGDRVTITCRASQNIRTAVVWYQQKPGKAPKLLIYLATNRHSGVPSRFSGSGSGTDFTFTISSLQPEDIATYYCLQHWTYPFSFGGGTKLEIK
T½ [1]: 26.3 min

B8: H2-E7-H3-2 (antibody, V domains shown)
VH: QVQLVQSGAEVKKPGASVKVSCKASGYTFTDFSVHWVRQAPGQGLEWMGWYNLETDETSYADDFKGRVTMTRDTSTSTVYMELSSLRSEDTAVYYCVKSLFWSYGPPDYWGQGTTVTVSS
VL: DIQMTQSPSSLSASVGDRVTITCRASQNIRTAVVWYQQKPGKAPKLLIYLATNRHSGVPSRFSGSGSGTDFTFTISSLQPEDIATYYCLQHWTYPFSFGGGTKLEIK
T½ [2]: 7.94 h

B9: H2-E7 (antibody, V domains shown)
VH: QVQLVQSGAEVKKPGASVKVSCKASGYTFTDFSVHWVRQAPGQGLEWMGWYNLETDETSYADDFKGRVTMTRDTSTSTVYMELSSLRSEDTAVYYCVKSRGWSYGPPDYWGQGTTVTVSS
VL: DIQMTQSPSSLSASVGDRVTITCRASQNIRTAVVWYQQKPGKAPKLLIYLATNRHSGVPSRFSGSGSGTDFTFTISSLQPEDIATYYCLQHWTYPFSFGGGTKLEIK
T½ [1]: 13.7 min

B11: H2-A11-H3-1 (antibody, V domains shown)
VH: QVQLVQSGAEVKKPGASVKVSCKASGYTFTDFSVHWVRQAPGQGLEWMGWINTEYDFTSYADDFKGRVTMTRDTSTSTVYMELSSLRSEDTAVYYCVESLYWSYGPPDYWGQGTTVTVSS
VL: DIQMTQSPSSLSASVGDRVTITCRASQNIRTAVVWYQQKPGKAPKLLIYLATNRHSGVPSRFSGSGSGTDFTFTISSLQPEDIATYYCLQHWTYPFSFGGGTKLEIK
T½ [2]: 4.19 h

B12: H2-E7-H3-4 (antibody, V domains shown)
VH: QVQLVQSGAEVKKPGASVKVSCKASGYTFTDFSVHWVRQAPGQGLEWMGWYNLETDETSYADDFKGRVTMTRDTSTSTVYMELSSLRSEDTAVYYCVKSRWWSYGPPDYWGQGTTVTVSS
VL: DIQMTQSPSSLSASVGDRVTITCRASQNIRTAVVWYQQKPGKAPKLLIYLATNRHSGVPSRFSGSGSGTDFTFTISSLQPEDIATYYCLQHWTYPFSFGGGTKLEIK
T½ [2]: 7.37 h

B14: H2-A11-H3-2 (antibody, V domains shown)
VH: QVQLVQSGAEVKKPGASVKVSCKASGYTFTDFSVHWVRQAPGQGLEWMGWINTEYDFTSYADDFKGRVTMTRDTSTSTVYMELSSLRSEDTAVYYCVKSLFWSYGPPDYWGQGTTVTVSS
VL: DIQMTQSPSSLSASVGDRVTITCRASQNIRTAVVWYQQKPGKAPKLLIYLATNRHSGVPSRFSGSGSGTDFTFTISSLQPEDIATYYCLQHWTYPFSFGGGTKLEIK
T½ [2]: 8.53 h

B15: H2-A8 (antibody, V domains shown)
VH: QVQLVQSGAEVKKPGASVKVSCKASGYTFTDFSVHWVRQAPGQGLEWMGWINTEFDFTSYADDFKGRVTMTRDTSTSTVYMELSSLRSEDTAVYYCVKSRGWSYGPPDYWGQGTTVTVSS
VL: DIQMTQSPSSLSASVGDRVTITCRASQNIRTAVVWYQQKPGKAPKLLIYLATNRHSGVPSRFSGSGSGTDFTFTISSLQPEDIATYYCLQHWTYPFSFGGGTKLEIK
T½ [1]: 20.8 min

B16: H2-F10 (antibody, V domains shown)
VH: QVQLVQSGAEVKKPGASVKVSCKASGYTFTDFSVHWVRQAPGQGLEWMGWINLEFDETSYADDFKGRVTMTRDTSTSTVYMELSSLRSEDTAVYYCVKSRGWSYGPPDYWGQGTTVTVSS
VL: DIQMTQSPSSLSASVGDRVTITCRASQNIRTAVVWYQQKPGKAPKLLIYLATNRHSGVPSRFSGSGSGTDFTFTISSLQPEDIATYYCLQHWTYPFSFGGGTKLEIK
T½ [1]: 21.6 min

B19: H2-A11-H3-3 (antibody, V domains shown)
VH: QVQLVQSGAEVKKPGASVKVSCKASGYTFTDFSVHWVRQAPGQGLEWMGWINTEYDFTSYADDFKGRVTMTRDTSTSTVYMELSSLRSEDTAVYYCVKSLYWSYGPPDYWGQGTTVTVSS
VL: DIQMTQSPSSLSASVGDRVTITCRASQNIRTAVVWYQQKPGKAPKLLIYLATNRHSGVPSRFSGSGSGTDFTFTISSLQPEDIATYYCLQHWTYPFSFGGGTKLEIK
T½ [2]: 17.2 h

B20: H2-C8 (antibody, V domains shown)
VH: QVQLVQSGAEVKKPGASVKVSCKASGYTFTDFSVHWVRQAPGQGLEWMGWINTETRGTSYADDFKGRVTMTRDTSTSTVYMELSSLRSEDTAVYYCVKSRGWSYGPPDYWGQGTTVTVSS
VL: DIQMTQSPSSLSASVGDRVTITCRASQNIRTAVVWYQQKPGKAPKLLIYLATNRHSGVPSRFSGSGSGTDFTFTISSLQPEDIATYYCLQHWTYPFSFGGGTKLEIK
T½ [1]: 20.6 min

Other lines, results leading:

T½ [1]: 2.4 min
B4: H3-F5 (antibody, V domains shown)
VH: QVQLVQSGAEVKKPGASVKVSCKASGYTFTDFSVHWVRQAPGQGLEWMGWINTETDETSYADDFKGRVTMTRDTSTSTVYMELSSLRSEDTAVYYCVKSLFWSYGPPDYWGQGTTVTVSS
VL: DIQMTQSPSSLSASVGDRVTITCRASQNIRTAVVWYQQKPGKAPKLLIYLATNRHSGVPSRFSGSGSGTDFTFTISSLQPEDIATYYCLQHWTYPFSFGGGTKLEIK

T½ [1]: 17.8 min
B5: H2-F11 (antibody, V domains shown)
VH: QVQLVQSGAEVKKPGASVKVSCKASGYTFTDFSVHWVRQAPGQGLEWMGWINTEFDYTSYADDFKGRVTMTRDTSTSTVYMELSSLRSEDTAVYYCVKSRGWSYGPPDYWGQGTTVTVSS
VL: DIQMTQSPSSLSASVGDRVTITCRASQNIRTAVVWYQQKPGKAPKLLIYLATNRHSGVPSRFSGSGSGTDFTFTISSLQPEDIATYYCLQHWTYPFSFGGGTKLEIK

T½ [1]: 2.26 min
B6: H3-H9 (antibody, V domains shown)
VH: QVQLVQSGAEVKKPGASVKVSCKASGYTFTDFSVHWVRQAPGQGLEWMGWINTETDETSYADDFKGRVTMTRDTSTSTVYMELSSLRSEDTAVYYCVKSRWWSYGPPDYWGQGTTVTVSS
VL: DIQMTQSPSSLSASVGDRVTITCRASQNIRTAVVWYQQKPGKAPKLLIYLATNRHSGVPSRFSGSGSGTDFTFTISSLQPEDIATYYCLQHWTYPFSFGGGTKLEIK

Kd [3]: < 0.125 nM
B10: FF2-H3RY (antibody, V domains shown)
VH: QVQLVQSGAEVKKPGASVKVSCKASGYTFTDFSVHWVRQAPGQGLEWMGWINTEYDFTSYADDFKGRVTMTRDTSTSTVYMELSSLRSEDTAVYYCVKSRYWSYGPPDYWGQGTTVTVSS
VL: DIQMTQSPSSLSASVGDRVTITCQASQNIRTAVVWYQQKPGKAPKLLIYLASNRHSGVPSRFSGSGSGTDFTFTISSLQPEDIATYYCLQHWTYPFTFGGGTKVEIK

Kd [3]: 0.171 nM
B13: FF2 (antibody, V domains shown)
VH: QVQLVQSGAEVKKPGASVKVSCKASGYTFTDFSVHWVRQAPGQGLEWMGWINTEYDFTSYADDFKGRVTMTRDTSTSTVYMELSSLRSEDTAVYYCVKSLYWSYGPPDYWGQGTTVTVSS
VL: DIQMTQSPSSLSASVGDRVTITCQASQNIRTAVVWYQQKPGKAPKLLIYLASNRHSGVPSRFSGSGSGTDFTFTISSLQPEDIATYYCLQHWTYPFTFGGGTKVEIK

Kd [3]: 0.224 nM
B17: FF2-H2WT H3RY (antibody, V domains shown)
VH: QVQLVQSGAEVKKPGASVKVSCKASGYTFTDFSVHWVRQAPGQGLEWMGWINTETDETSYADDFKGRVTMTRDTSTSTVYMELSSLRSEDTAVYYCVKSRYWSYGPPDYWGQGTTVTVSS
VL: DIQMTQSPSSLSASVGDRVTITCQASQNIRTAVVWYQQKPGKAPKLLIYLASNRHSGVPSRFSGSGSGTDFTFTISSLQPEDIATYYCLQHWTYPFTFGGGTKVEIK

Kd [3]: < 0.2 nM
B18: FF2-H2WT (antibody, V domains shown)
VH: QVQLVQSGAEVKKPGASVKVSCKASGYTFTDFSVHWVRQAPGQGLEWMGWINTETDETSYADDFKGRVTMTRDTSTSTVYMELSSLRSEDTAVYYCVKSLYWSYGPPDYWGQGTTVTVSS
VL: DIQMTQSPSSLSASVGDRVTITCQASQNIRTAVVWYQQKPGKAPKLLIYLASNRHSGVPSRFSGSGSGTDFTFTISSLQPEDIATYYCLQHWTYPFTFGGGTKVEIK

Kd [3]: 0.187 nM
B21: FF2-H2RG (antibody, V domains shown)
VH: QVQLVQSGAEVKKPGASVKVSCKASGYTFTDFSVHWVRQAPGQGLEWMGWINTETRGTSYADDFKGRVTMTRDTSTSTVYMELSSLRSEDTAVYYCVKSLYWSYGPPDYWGQGTTVTVSS
VL: DIQMTQSPSSLSASVGDRVTITCQASQNIRTAVVWYQQKPGKAPKLLIYLASNRHSGVPSRFSGSGSGTDFTFTISSLQPEDIATYYCLQHWTYPFTFGGGTKVEIK
